{"source": "patent US20110052551A1", "about": "“CARDIAC MYOCYTE MORPHOGENIC COMPOSITIONS AND METHODS OF USE THEREFOR” (priority 2008, published 2011)", "molecules": {"B1": {"name": "Wnt3a: recombinant Wnt3a protein, canonical Wnt, used at 150 ng/ml (protein, UniProt P56704 19-352, looked up)", "Protein Wnt-3a": "SYPIWWSLAVGPQYSSLGSQPILCASIPGLVPKQLRFCRNYVEIMPSVAEGIKIGIQECQHQFRGRRWNCTTVHDSLAIFGPVLDKATRESAFVHAIASAGVAFAVTRSCAEGTAAICGCSSRHQGSPGKGWKWGGCSEDIEFGGMVSREFADARENRPDARSAMNRHNNEAGRQAIASHMHLKCKCHGLSGSCEVKTCWWSQPDFRAIGDFLKDKYDSASEMVVEKHRESRGWVETLRPRYTYFKVPTERDLVYYEASPNFCEPNPETGSFGTRDRTCNVSSHGIDGCDLLCCGRGHNARAERRREKCRCVFHWCCYVSCQECTRVYDVHTCK"}}, "key": {"unfractionated BMMNCs [1]": {"system": "unfractionated BMMNCs", "test": "Immunocytochemistry for Oct-4-positive BMMNCs", "type": "cell-based, mice", "conditions": "21 days, 150 ng/ml", "procedure": "Additionally, to assess the influence of Wnt3a on cellular differentiation, unfractionated BMMNCs were cultured separately in the presence of 150 ng/ml of recombinant Wnt3a protein under the same conditions used to culture unfractionated BMMNCs, using pcDNA3/293 cells containing the empty vector as controls (see FIG. 9A).\nImmunocytochemistry. Cells were fixed on glass cover-slides with 4% paraformaldehyde for 20 minutes at 4° C. Cells were washed four times and permeabilized with BD PERM/WASH™ (containing saponin; BD Biosciences, San Jose, Calif., United States of America). For immunostaining, separate preparations of BD PERM/WASH™ containing primary monoclonal antibodies against either cardiac troponin T (cTnT; Santa Cruz Biotechnology, Santa Cruz, Calif., United States of America) or cardiac myosin heavy chain (cMyHC; Novus Biologicals, Inc., Littleton, Colo., United States of America) or connexin-43 or Oct-4 were prepared; all primary antibodies, save cMyHC, were purchased from Santa Cruz Biotechnology. Each preparation also contained primary monoclonal antibodies against nestin, glial fibrillary acidic protein (GFAP), CD11B, Gr-1 (myeloid lineage markers), the CD45 epitope, myogenin […]"}, "unfractionated BMMNCs [2]": {"system": "unfractionated BMMNCs", "test": "qRT-PCR of Wnt3a and β-catenin expression in cultured BMMNCs", "type": "cell-based, mice", "conditions": "21 days, relative to baseline", "procedure": "Assessment of mRNA expression by quantitative real-time RT-PCR (qRT-PCR). All qRT-PCR reagents and primers were purchased from Qiagen Inc. (Valencia, Calif., United States of America). Prior to mRNA extraction, cell number was determined and calculated by Trypan blue exclusion. cDNA was generated from freshly isolated (designated as baseline) and cultured unfractionated BMMNCs at days 0, 3, 7, and 21 (see FIG. 9A) using QUANTISCRIPT REVERSE TRANSCRIPTASE™ (Qiagen Inc., Valencia, Calif., United States of America) contained in RT master mix of Cell to cDNA kits according to manufacturer's protocol. […]\nTo avoid amplification of contaminating DNA, all validated qRT-PCR primers were designed to cross […] sequences within the cDNA to be amplified. Quantitative qRT-PCR analysis was performed in an ABI Prism 7900H sequence detection system (Applied Biosystems, Foster City, Calif.) using QUANTITECT™ SYBR® Green Real Time PCR kits. Each 50 μl qRT-PCR reaction contained 2 μl (approximately 50 ng) of cDNA, 5 μl of 1× primer mix (containing approximately 500 nM sense and anti-sense primers) and 25 μl of 2× QUANTITECT™ SYBR® Green master mix. […]\nThe PCR product level is calculated from the threshold cycle (Ct). That is, the amplification cycle number at which exponential PCR-generated gene-specific fluorescence is first detected (above a fixed threshold level). […]"}}, "note": "“Also recorded” adds a separate entry of the source.", "data": [{"molecule": "B1", "values": [{"measurement": "number of Oct-4-positive BMMNCs compared with untreated control", "setting": "unfractionated BMMNCs [1]", "result": "marked increase; also recorded: a much greater number"}, {"measurement": "increase in β-catenin expression", "setting": "unfractionated BMMNCs [2]", "result": "183.4±0.3", "unit": "fold"}]}]}
